According to publication PMC4698670, “Fortilin potentiates the peroxidase activity of Peroxiredoxin-1 and protects against alcohol-induced liver damage in mice” (Scientific Reports, 2016):

Biological target: T1, recombinant human PRX1 (Sigma-Aldrich) (human, UniProt Q06830 1-199)
T1 construct: recombinant human peroxiredoxin-1, bought; construct not described; also called recombinant PRX1; source: bought: Sigma-Aldrich
T1 sequence (looked up): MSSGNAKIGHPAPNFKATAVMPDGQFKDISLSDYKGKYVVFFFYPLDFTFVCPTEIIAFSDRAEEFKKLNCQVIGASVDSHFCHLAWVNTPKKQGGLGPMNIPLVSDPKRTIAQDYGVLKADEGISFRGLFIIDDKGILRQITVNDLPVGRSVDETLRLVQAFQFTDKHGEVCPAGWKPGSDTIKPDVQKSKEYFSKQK
Assay: BLI; BLItz; biotinylated fortilin immobilized on streptavidin biosensors (1 μg/mL, 25 mM Tris, 150 mM NaCl, 0.1% Tween-20), then PBS; recombinant PRX1 in solution, 180 s association, 300 s dissociation in PBS; three independent experiments
Conditions: both partners purified

B1: recombinant human fortilin tagged with the Strep-tag II (natural protein, UniProt P13693 1-172, looked up)
chain: MIIYRDLISHDEMFSDIYKIREIADGLCLEVEGKMVSRTEGNIDDSLIGGNASAEGPEGEGTESTVITGVDIVMNHHLQETSFTKEAYKKYIKDYMKSIKGKLEEQRPERVKPFMTGAAEQIKHILANFKNYQFFIGENMNPDGMVALLDYREDGVTPYMIFFKDGLEMEKC
modifications: biotin (biotinylated for the biolayer interferometry)
notes: human fortilin (TCTP) cDNA in the pESG-IBA5 vector; Biotinylated only for the biolayer interferometry; used without biotin in the activity and phosphorylation assays; also called recombinant fortilin; wild-type fortilin; source: 293T cells stably expressing it, purified (Strep-Tactin-Superflow resin)
With B1 the Kd was 125 nM.
